PMC7411133, “Phosphorylations of the Abutilon Mosaic Virus Movement Protein Affect Its Self-Interaction, Symptom Development, Viral DNA Accumulation, and Host Range” (Frontiers in Plant Science, 2020)
Residue numbers refer to the chain shown, from its start. Names and notes keep the numbering of the source. “Also recorded” adds a separate entry of the source.

B1: AbMV movement protein, full-length, T221A/S223A/S250A (MP^AAA), fused to mVenus or mTurquoise2 (natural protein, Abutilon mosaic virus, UniProt P21946 1-293, looked up)
chain: MDSQLVNPPNAFNYIESHRDEYQLSHDLTEIILQFPSTAAQLTARLSRSCMKIDHCVIEYRQQVPINATGSVIVEIHDKRMTDNESLQASWTFPIRCNIDLHYFSASFFSLKDPIPWKLYYKVCDTNVHQRTHFAKFKGKLKLSTAKHSVDIPFRAPTVRILSKQFSEKDVDFSHVDYGKWERKPIRCASMSRIGLRGPIEIRPGESWASRSTIGTAQPDADAEMENELHPYRHLNRLGTSLLDPGESAAIVGDQRAEPNITMSMGQLNELVRTAVQECVNSNCQASQAKSLK
notes: Movement protein (MP; BC1) of Abutilon mosaic virus, full-length; Two copies expressed from one T-DNA (pFRETtv-2-in-1), one with mVenus and one with mTurquoise2, in four layouts (NN, NC, CN, CC); each copy carries one fluorescent protein at one end; also called mVenus::MP^AAA; MP^AAA::mVenus; source: N. benthamiana leaf epidermis, transiently expressed after agro-infiltration, in living cells; …
B2: AbMV movement protein, full-length, T221D/S223D/S250D (MP^DDD), fused to mVenus or mTurquoise2 (natural protein, Abutilon mosaic virus, UniProt P21946 1-293, looked up)
chain: B1 chain with A221D, A223D, A250D
notes: Movement protein (MP; BC1) of Abutilon mosaic virus, full-length; Two copies expressed from one T-DNA (pFRETtv-2-in-1), one with mVenus and one with mTurquoise2, in four layouts (NN, NC, CN, CC); each copy carries one fluorescent protein at one end; also called mVenus::MP^DDD; MP^DDD::mVenus; source: N. benthamiana leaf epidermis, transiently expressed after agro-infiltration, in living cells; …
B3: AbMV movement protein, full-length, wild type (MP^WT), fused to mVenus or mTurquoise2 (natural protein)
chain: B1 chain with A221T, A223S, A250S
notes: Movement protein (MP; BC1) of Abutilon mosaic virus, full-length; Two copies expressed from one T-DNA (pFRETtv-2-in-1), one with mVenus and one with mTurquoise2, in four layouts (NN, NC, CN, CC); each copy carries one fluorescent protein at one end; also called BC1; mVenus::MP^WT; source: N. benthamiana leaf epidermis, transiently expressed after agro-infiltration, in living cells; not shown: …

Key:
[1] = target: AbMV movement protein (MP; BC1) (UniProt P21946); test: acceptor photobleaching FRET, tag layout NC; conditions: sites T221,S223,S250
[2] = target: the molecule itself; test: FRET or BRET; acceptor photobleaching FRET in living N. benthamiana leaf epidermal cells, 3 dpai; acceptor mVenus, donor mTurquoise2; four layouts (NN, NC, CN, CC); without and with local AbMV (DNA-A + DNA-BΔMP) infection; ROIs along the plasma membrane; p19 co-infiltrated

Molecule	other: mean FRET efficiency ([1]; reference: MPWT with MPWT)	other: mean FRET efficiency ([1]; reference: MPAAA with MPAAA)	mean FRET efficiency (layout NC, with AbMV) [2]	mean FRET efficiency (layout NC, without AbMV) [2]
AbMV movement protein (MP; BC1) (from UniProt P21946) MPAAA with MPAAA	stronger; reference 36; also recorded: stronger; reference 28			
AbMV movement protein (MP; BC1) (from UniProt P21946) MPDDD with MPDDD	same; reference 28	weaker; reference 50; also recorded: weaker; reference 42		
B1			42%	50%
B2			30%	14%
B3			28%	36%
